From the supplement of paper PMC9170038 come the findings set out here.

In this data set the test system is MS2 coat protein. As to the kind of experiment: apparent KD of MS2 coat protein; designed switch direction (-1 OFF switch, 1 ON switch): 1; higher = weaker reporter binding. In outline: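 The buffer was Tris-HCl pH 7.5 with KCl, MgCl2, BSA, DTT, tRNA and Tween-20. In it, SNAP-549-labelled MS2 coat protein was titrated in doubling steps from 0.7 or 1.5 nM to 3 µM over chip-bound RNA switches transcribed by stalled E. coli RNA polymerase on Illumina chips. Apparent KD is the per-design median over clusters of curve fits to normalised fluorescence.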

The mark [1] stands for this setting: input ligand: microRNA oligo, concentration not stated.
The mark [2] stands for this setting: Eterna round: R95, input ligand: FMN 200 uM.
Where [3] appears, read: Eterna round: R95, input ligand: microRNA oligo, concentration not stated.
[4] abbreviates: Eterna round: R95, input ligand: none.

Take “GCUGCAAGGGCAGGAUAUGGGUUCAGAGCAGAAGUGCGCUUUGAUACAUGAGGAUCACCCAUGUCCCAGAAGGGCCCAAGCGGC [Veribe] (Eterna round: R96, puzzle: Same State NG 2)”: the “apparent KD of MS2 coat protein” value turned out to be 0.0177 µM (input ligand: FMN 200 uM), 0.0983 µM under setting [1] and 0.159 µM (input ligand: none).
As for “GGAAACAAGAGAGGAUAUGCAGAGGAUCACCCUGCAGAAGGCUCAAAAGAGAGGAUAUGCAGAGGAUCACCCUGCAGAAGGCUC [pwkr ssNG DX.27] (Eterna round: R96, puzzle: Same State NG 1)”, the “apparent KD of MS2 coat protein” value by setting is: (input ligand: FMN 200 uM) 0.0178 µM; under setting [1], 0.0112 µM; (input ligand: none) 0.0214 µM.
The matching figures for “GGAAACUUGAGAGGAUAUGUAGAGGAUCACCCUACAGAAGGCUCAAAAGAGAGGAUAUGUAGAGGAUCACCCUACAGAAGGCUC [pwkr ssNG DX.11] (Eterna round: R96, puzzle: Same State NG 1)”: 0.0249 µM, 0.0237 µM and 0.0331 µM.
Turning to “GGAAAGAGGUAAGGAUAUGCAUGGCUGGGACAUGAGGAUCACCCAUGUAAUAGAAGAAAUCUAGGGUAGAAGGUACAAGGAAGG [AK SSNG2-V2-9] (Eterna round: R96, puzzle: Same State NG 2)”, the “apparent KD of MS2 coat protein” value (input ligand: FMN 200 uM) is 1.11 µM, the “apparent KD of MS2 coat protein” value under setting [1] is 0.367 µM and the “apparent KD of MS2 coat protein” value (input ligand: none) is 0.45 µM.
On to “GGAAGGAGGUCAGGAUAUGGAUGGAAGGUACAUGAGGAUCACCCAUGUUACGGAGGAAGGAAACGUUAGAAGGGAUAAGGAAGG [AK SSNG2-V2-2.1] (Eterna round: R96, puzzle: Same State NG 2)”, for which the “apparent KD of MS2 coat protein” value was determined as 0.0347 µM (input ligand: FMN 200 uM), 0.0249 µM under setting [1] and 0.0318 µM (input ligand: none).
The matching figures for “GGAAUAUUUACAGGAUAUCAUUUGUAAAUUCGAUGAGAAGGGUAGAUGUCUUACACGACGUGUUACAUGAGGAUCACCCAUGUU [SameState NG1 #7] (Eterna round: R96, puzzle: Same State NG 1)”: 0.146 µM, 0.142 µM and 0.145 µM.
As to “GGAGACAGAGCAGGAUAUGCUCCGAGUAACGAAGCAGAAGGGUUCGUAAAUCGUCGACAUGAGGAUCACCCAUGUGACCUAGUA [Eternabot solution 18] (Eterna round: R96, puzzle: Same State NG 1)”, the “apparent KD of MS2 coat protein” value is, setting by setting: (input ligand: FMN 200 uM) 0.0207 µM; under setting [1], 0.0184 µM; (input ligand: none) 0.0247 µM.
For “GGAGCCGGCACCGAGGAUAUUCAUAUUAAAACAUGAGGAUCACCCAUGUAGGCCAGAAGGCCUUGGGAGAAGGCGGACCGGCUCG [Xeonanis - 4] (Eterna round: R96, puzzle: Same State 2)” the same measures were 0.0274 µM, 0.165 µM and 0.287 µM.
Consider “GGAGCCGGCACCGAGGAUAUUCAUAUUAAAACAUGAGGAUCACCCAUGUAGGCCAGAAGGCCUUGGGAGAAGGCGGACCGGCUCG [Xeonanis - 4] (puzzle: Same State 2)”, for which the “apparent KD of MS2 coat protein” value reads like this: under setting [2], 0.024 µM; under setting [3], 0.52 µM; under setting [4], 0.664 µM.
For “GGAGCCGGCACUGAGGAUAUUCAUAGUGUAACAUGAGGAUCACCCAUGUAGGCCCUGAGGCCUUGGGAGAAGGCAGGUCGGCUCG [JL-ss2-3.04 ViennaUCT mod] (puzzle: Same State 2)” the same measures were 0.0318 µM, 0.239 µM and 0.445 µM.
The matching figures for “GGAGCCGGUACUGAGGAUAUUCAUCUUAAAACAUGAGGAUCACCCAUGUAGGCCAGAAGGCCUUGGGAGAAGGCAGAUCGGCUCC [Biseusra - 7] (puzzle: Same State 2)”: 0.02 µM, 0.0522 µM and 0.066 µM.
Regarding “GGAGGACAUGAGGAUCACCCAUGUGGAUGGGCGCUAGGAUAUGCGAGAGGAGGGAGUGGAGCAGAAGGAGUGGGUU [JR_SS1_Sub043] (puzzle: Same State 1)”, the “apparent KD of MS2 coat protein” value under setting [3] was determined as 0.0503 µM.
On to “GGAGUCGGCACUGAGGAUAUUCAUAUUUAAACAUGAGGAUCACCCAUGUAGGCCAGAAGGCCUUGGGAGAAGGCAGGUCGGCUCG [salish99_ss2_r3_084] (puzzle: Same State 2)”, for which the “apparent KD of MS2 coat protein” value was determined as 0.0225 µM under setting [2], 0.154 µM under setting [3] and 0.241 µM under setting [4].
Turning to “GGAUCGUCGGCAGGAUAUGAGCAAGUGCAUCGAUCAGAAGGGUCGAGUCCUAGAAGGUAAAGCACAUGAGGAUCACCCAUGUAG [Eternabot solution 39] (Eterna round: R96, puzzle: Same State NG 1)”, the “apparent KD of MS2 coat protein” value runs as follows: (input ligand: FMN 200 uM) 0.0407 µM; under setting [1], 0.0637 µM; (input ligand: none) 0.0963 µM.
Take “GGCAGGUGCAGGCUUGCUUGCACCUGGAAACAUGAGGAUCACCCAUGUUUGGGACAAGCUUUGCUCCUCGUCUUGUC [JL ViennaUCT Isusreraar mod 2] (Eterna round: R96, puzzle: Sensor for hsa-mir-208a)”: the “apparent KD of MS2 coat protein” value came to 0.0384 µM (input ligand: FMN 200 uM), 0.0392 µM under setting [1] and 0.0428 µM (input ligand: none).
Regarding “GGCAGGUGCAGGCUUGCUUGCACCUGGAAACAUGAGGAUCACCCAUGUUUGGGACAAGCUUUGCUCCUCGUCUUGUC [JL ViennaUCT Isusreraar mod 2] (puzzle: Sensor for hsa-mir-208a)”, the “apparent KD of MS2 coat protein” value is 0.0282 µM under setting [2], 0.0365 µM under setting [3] and 0.0367 µM under setting [4].
Turning to “GGCCAGAGUCAAGGAUAUGCUACCGUUUCGGUAGCAGAAGGUGAUCACAUGAGGAUCACCCAUGUAUACUGCGAGAGUAGGGCC [JL SSNG1 3.66] (Eterna round: R96, puzzle: Same State NG 1)”, the “apparent KD of MS2 coat protein” value is, setting by setting: (input ligand: FMN 200 uM) 0.0945 µM; under setting [1], 0.0236 µM; (input ligand: none) 0.197 µM.
The matching figures for “GGCCAGAGUCAAGGAUAUGCUACCGUUUCGGUAGCAGAAGGUGAUCACAUGAGGAUCACCCAUGUUUACUGCGAGAGCAUGGCC [JL SSNG1 3.68] (Eterna round: R96, puzzle: Same State NG 1)”: 0.809 µM, 0.103 µM and 0.0341 µM.
For “GGCCAGAGUCAAGGAUAUGCUACCGUUUCGGUAGCAGAAGGUGAUCACAUGAGGAUCACCCAUGUUUACUGCGAGAGUAUGGCC [JL SSNG1 3.67] (Eterna round: R96, puzzle: Same State NG 1)” the same measures were 0.661 µM, 0.197 µM and 0.214 µM.
On to “GGCGAACAGGCUAACAUGAGGAUCACCCAUGUGGACUUCGUGUAGGAUAUCGGGAAGGAGGAAACCGAGAAGGGCGAAGAAGCC [AK SSNG3-V2-49.1] (Eterna round: R96, puzzle: Same State NG 3)”, for which the “apparent KD of MS2 coat protein” value reads like this: (input ligand: FMN 200 uM) 0.0552 µM; under setting [1], 0.0481 µM; (input ligand: none) 0.0551 µM.
In the case of “GGCGCCGGCGCAGGAUAUAAUAGCACCAACAAAUUAGAAGGGUGUCUGACUUAAACAUGAGGAUCACCCAUGUGCGCCACAAAA [Eternabot solution 2] (Eterna round: R96, puzzle: Same State NG 1)”, the “apparent KD of MS2 coat protein” value reads like this: (input ligand: FMN 200 uM) 0.198 µM; under setting [1], 0.137 µM; (input ligand: none) 0.311 µM.
Turning to “GGCUAUCGCGUACGAUAGCUGAAGCGUGUACAUGAGGAUCACCCAUGUCAUGUACAAGCUUUUUGCUCGUCUUAUUG [JL-shm-2.33 JL mod] (puzzle: Sensor for hsa-mir-208a)”, the “apparent KD of MS2 coat protein” value runs as follows: under setting [2], 0.155 µM; under setting [3], 0.0182 µM; under setting [4], 0.328 µM.
On to “GGGCCAGCUUGUGCUGGGCCUUCGCAUGCACAUGAGGAUCACCCAUGUCGUGUACAUGCUUGGUGCCCGUCUUUAAA [Photon Torp-13] (puzzle: Sensor for hsa-mir-208a)”, for which the “apparent KD of MS2 coat protein” value was found to be 0.102 µM under setting [2], 0.0139 µM under setting [3] and 0.103 µM under setting [4].
The matching figures for “GGGUGUGGAAGGAAAGAUAGGAAAAGGAAACAUGAGGAUCACCCAUGUGAAGGAAGAAAGGGAGCUCGUCUUAUAAG [JR_SHM208A_Sub001] (puzzle: Sensor for hsa-mir-208a)”: 0.0274 µM, 0.0227 µM and 0.0235 µM.
With “GGUAGGUUACUACCAAACAUGAGGAUCACCCAUGUAAGUGGGAAGGAUAUGGUACCUUUUAGGUACCAGAAGGUCCAUAUAGUU [JL Fiskers NG3ss - 2 mod 9] (Eterna round: R96, puzzle: Same State NG 3)”, the “apparent KD of MS2 coat protein” value was found to be 0.405 µM (input ligand: FMN 200 uM), 0.141 µM under setting [1] and 0.501 µM (input ligand: none).
“GGUAGGUUACUACCAGACAUGAGGAUCACCCAUGUAAGUGGGAAGGAUAUGGUACCUUUUAGGUACCAGAAGGUCCAUAUAGUU [JL SSNG3 1.43] (Eterna round: R96, puzzle: Same State NG 3)”: the “apparent KD of MS2 coat protein” value runs as follows: (input ligand: FMN 200 uM) 0.253 µM; under setting [1], 0.429 µM; (input ligand: none) 1.08 µM.
For “GGUAGGUUACUACCAUACAUGAGGAUCACCCAUGUAAAUGGGAAGGAUAUGGUACCUAUUUGGUACCAGAAGGUCCAAUUAAUU [JL Fiskers NG3ss - 2 mod 3] (Eterna round: R96, puzzle: Same State NG 3)” the same measures were 0.148 µM, 0.446 µM and 0.706 µM.
